# According to PMC8431534:
# Molecular target: Myc-tagged PTK7 (Xenopus protein tyrosine kinase 7, full length) (Xenopus)
# Experiment: co-IP; HEK293 cells co-transfected with Myc-tagged PTK7 and GFP-tagged constructs; immunoprecipitation with anti-Myc, Dynabeads Protein G, Western blot (Figure 5B)
substance,measurement,value
"ΔkPTK7-GFP (Xenopus Ptk7 with the kinase domain deleted, GFP-tagged) (receptor)","quantity co-precipitated with full-length PTK7 in respect to input, densitometry, relative to PTK7 = 1 (relative to PTK7 = 1)",2.6
